Residue numbers refer to the chain shown, from its start.
B1: anti-DLL3 trispecific protein, DLL3 binder 1D02 (protein, part only; not given: CD3 binder and albumin binder, part only)
chain, part: EVQLVESGGGLVQPGGSLTLSCVASGSTSSINAMAWYRRAPGKQRELVAGISSNGSKVYADSVKGRFTISRDNAKNSVYLQMNSLRAEDTAVYYCYYFRQVSGSSMRYWGQGTLVTVSSGGGGSGGGSGGGGSGGGSHHHHHH
B2: anti-DLL3 trispecific protein, DLL3 binder 1H06 (protein, part only; not given: anti-CD3 fragment and anti-albumin sdAb, part only)
chain, part: B1 chain, part with S27T, A35G, N54D, A60V, Q100F, V101L
B3: anti-DLL3 trispecific protein, DLL3 binder 2F08 (protein, part only; not given: anti-CD3 fragment and anti-albumin domain, part only)
chain, part: B1 chain, part with T28K, A35G, V48P, S56T, V63A, G65V, Q100T, S102L, S104T
B4: anti-DLL3 trispecific protein, DLL3 binder 2H08 (protein, part only; not given: anti-CD3 fragment and anti-albumin domain, part only)
chain, part: B1 chain, part with A35G, V48A, S53K, N54D, V63A, Q100T, M106S
B5: anti-DLL3 trispecific protein, DLL3 binder 1E05 (protein, part only; not given: anti-CD3 fragment and anti-albumin domain, part only)
chain, part: B1 chain, part with S30V, V48A, N54D, D61K, V63A, R99N, Q100T
B6: anti-DLL3 trispecific protein, DLL3 binder 2D02 (protein, part only; not given: anti-CD3 fragment and anti-albumin sdAb, part only)
chain, part: B1 chain, part with M34L, A35G, N54D, K57L, Q100I
B7: anti-DLL3 trispecific protein, DLL3 binder 1G05 (protein, part only; not given: anti-CD3 fragment and anti-albumin sdAb, part only)
chain, part: B1 chain, part with M34I, A35G, N54D, V58Y, Q100T, S102T
B8: anti-DLL3 trispecific protein, DLL3 binder 1H08 (protein, part only; not given: CD3 binder and albumin binder, part only)
chain, part: B1 chain, part with S29F, A35G, N54D, Y59L, Q100L
B9: anti-DLL3 trispecific protein, DLL3 binder 2E08 (protein, part only; not given: anti-CD3 fragment and anti-albumin sdAb, part only)
chain, part: B1 chain, part with T28R, A35G, S53A, N54D, Q100T, V101Q
B10: anti-DLL3 trispecific protein, DLL3 binder 3D010 (protein, part only; not given: CD3 binder and albumin binder, part only)
chain, part: EVQLVESGGGLVQPGGSLTLSCAASGSSKSFLSMAWYRQAPGKKRELVAGISADGSTSYIDSVKGRFTISRDNAKNSVYLQMNSLRAEDTAVYYCYAYRWTTRYTYWGQGTLVTVSSGGGGSGGGSGGGGSGGGSHHHHHH
B11: anti-DLL3 trispecific protein, DLL3 binder 3A01 (protein, part only; not given: anti-CD3 fragment and anti-albumin sdAb, part only)
chain, part: B10 chain, part with K29V, S30K, S58D, T102R
B12: anti-DLL3 trispecific protein, DLL3 binder 4G03 (protein, part only; not given: CD3 binder and albumin binder, part only)
chain, part: B10 chain, part with K29V, S30K, S58D, D61H, T102R
B13: anti-DLL3 trispecific protein, DLL3 binder 4G02 (protein, part only; not given: CD3 binder and albumin binder, part only)
chain, part: B10 chain, part with K29V, S30K, A53R, S58D, Y104H
B14: anti-DLL3 trispecific protein, DLL3 binder 3D05 (protein, part only; not given: CD3 binder and albumin binder, part only)
chain, part: B10 chain, part with K29V, S30R, S58D, T102R
B15: anti-DLL3 trispecific protein, DLL3 binder 4G07 (protein, part only; not given: anti-CD3 fragment and anti-albumin domain, part only)
chain, part: B10 chain, part with K29V, M34V, D54N, S58D, T102N
B16: anti-DLL3 trispecific protein, DLL3 binder 3G011 (protein, part only; not given: anti-CD3 fragment and anti-albumin sdAb, part only)
chain, part: B10 chain, part with S28R, K29V, S58G, T101A
B17: anti-DLL3 trispecific protein, DLL3 binder 3D08 (protein, part only; not given: anti-CD3 fragment and anti-albumin sdAb, part only)
chain, part: B10 chain, part with K29V, S30R, D54N, S58D, T102N
B18: anti-DLL3 trispecific protein, DLL3 binder 4H06 (protein, part only; not given: anti-CD3 and anti-albumin domains, part only)
chain, part: B10 chain, part with S27R, K29V, S58I
B19: anti-DLL3 trispecific protein, DLL3 binder 4C08 (protein, part only; not given: CD3 binder and albumin binder, part only)
chain, part: B10 chain, part with A23V, S28Q, K29V, S58D, I60F, T102R
B20: anti-DLL3 trispecific protein, DLL3 binder 3C01 (protein, part only; not given: CD3 binder and albumin binder, part only)
chain, part: B10 chain, part with K29V, S30R, D54H, S58D, T101S
B21: anti-DLL3 trispecific protein, DLL3 binder 4H09 (protein, part only; not given: anti-CD3 and anti-albumin domains, part only)
chain, part: B10 chain, part with K29V, F31K, S58D, I60R, T102Y
B22: anti-DLL3 trispecific protein, DLL3 binder 3H09 (protein, part only; not given: anti-CD3 fragment and anti-albumin domain, part only)
chain, part: B10 chain, part with G26K, K29V, S58D, Y104A
B23: anti-DLL3 trispecific protein, DLL3 binder 3B09 (protein, part only; not given: CD3 binder and albumin binder, part only)
chain, part: B10 chain, part with S28H, K29V, D54N, S58D, T105A
B24: anti-DLL3 trispecific protein, DLL3 binder 4B06 (protein, part only; not given: anti-CD3 fragment and anti-albumin domain, part only)
chain, part: B10 chain, part with S28R, K29V, S58D, I60F, T102R
B25: anti-DLL3 trispecific protein, DLL3 binder 3F08 (protein, part only; not given: CD3 fragment and albumin sdAb, part only)
chain, part: B10 chain, part with S28R, K29V, S58L, T101H
B26: anti-DLL3 trispecific protein, DLL3 binder 3A05 (protein, part only; not given: anti-CD3 fragment and anti-albumin domain, part only)
chain, part: B10 chain, part with K29V, A53E, D54A, S58D, T101R
B27: anti-DLL3 trispecific protein, DLL3 binder 3B04 (protein, part only; not given: CD3 binder and albumin binder, part only)
chain, part: B10 chain, part with S28N, K29V, D54R, S58D, R99H
B28: anti-DLL3 trispecific protein, DLL3 binder 4F02 (protein, part only; not given: anti-CD3 fragment and anti-albumin domain, part only)
chain, part: B10 chain, part with S28T, K29V, A53H, S58D
B29: anti-DLL3 trispecific protein, DLL3 binder 4H07 (protein, part only; not given: anti-CD3 fragment and anti-albumin sdAb, part only)
chain, part: B10 chain, part with S27R, K29V, D54N, S58D, T101S
B30: anti-DLL3 trispecific protein, DLL3 binder 3E03 (protein, part only; not given: CD3 binder and albumin binder, part only)
chain, part: B10 chain, part with K29V, S30R, A53G, S58D, T101M
B31: anti-DLL3 trispecific protein, DLL3 binder 4H01 (protein, part only; not given: CD3 binder and albumin binder, part only)
chain, part: B10 chain, part with K29V, D54N, S58D, I60Y, T101R
B32: anti-DLL3 trispecific protein, DLL3 binder 3A06 (protein, part only; not given: anti-CD3 fragment and anti-albumin domain, part only)
chain, part: B10 chain, part with S21R, S28K, K29V, S58D, I60V, T102R
B33: anti-DLL3 trispecific protein, DLL3 binder 3G02 (protein, part only; not given: CD3 binder and albumin binder, part only)
chain, part: B10 chain, part with K29V, S56R, S58D, T101R
B34: anti-DLL3 trispecific protein, DLL3 binder 3B06 (protein, part only; not given: anti-CD3 fragment and anti-albumin sdAb, part only)
chain, part: B10 chain, part with S27K, K29V, A53K, S58D
B35: anti-DLL3 trispecific protein, DLL3 binder 4B05 (protein, part only; not given: anti-CD3 fragment and anti-albumin domain, part only)
chain, part: B10 chain, part with S28R, K29V, S56H, S58D, Y106H
B36: anti-DLL3 trispecific protein, DLL3 binder 3E01 (protein, part only; not given: anti-CD3 fragment and anti-albumin sdAb, part only)
chain, part: B10 chain, part with K29V, S30K, S58M, T101H

Each binder was assayed against biotinylated human DLL3 protein expressed as a human IgG1 fusion protein (human) (UniProt Q9NYJ7) (assay: Octet, biotinylated human DLL3-IgG1 fusion on streptavidin tips, single 50 nM, conditioned medium (relative KD)).
biotinylated human DLL3 protein expressed as a human IgG1 fusion protein (human), sequence (Q9NYJ7 27-492): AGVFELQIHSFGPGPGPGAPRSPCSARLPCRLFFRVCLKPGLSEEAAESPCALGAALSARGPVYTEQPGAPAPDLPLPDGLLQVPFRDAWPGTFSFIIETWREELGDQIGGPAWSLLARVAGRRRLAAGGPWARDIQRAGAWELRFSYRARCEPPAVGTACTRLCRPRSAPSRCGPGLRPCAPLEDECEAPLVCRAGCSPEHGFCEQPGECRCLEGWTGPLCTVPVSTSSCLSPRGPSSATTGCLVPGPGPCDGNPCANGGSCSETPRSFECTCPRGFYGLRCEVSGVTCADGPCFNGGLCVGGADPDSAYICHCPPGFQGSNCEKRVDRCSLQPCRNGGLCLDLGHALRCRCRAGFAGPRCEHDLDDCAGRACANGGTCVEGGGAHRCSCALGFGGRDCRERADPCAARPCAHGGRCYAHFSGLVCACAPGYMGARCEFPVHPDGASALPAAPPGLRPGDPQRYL

Row | Kd [nM] | Binder
1 | 14 | B1
2 | 14 | B2
3 | 20 | B3
4 | 18 | B4
5 | 14 | B5
6 | 14 | B6
7 | 14 | B7
8 | 17 | B8
9 | 17 | B9
10 | 14 | B10
11 | 16 | B11
12 | 20 | B12
13 | 15 | B13
14 | 16 | B14
15 | 18 | B15
16 | 17 | B16
17 | 17 | B17
18 | 18 | B18

Row | Kd [nM] | Binder
19 | 16 | B19
20 | 14 | B20
21 | 16 | B21
22 | 14 | B22
23 | 20 | B23
24 | 16 | B24
25 | 14 | B25
26 | 15 | B26
27 | 24 | B27
28 | 15 | B28
29 | 16 | B29
30 | 20 | B30
31 | 21 | B31
32 | 16 | B32
33 | 20 | B33
34 | 15 | B34
35 | 18 | B35
36 | 16 | B36
